Measured values from US20210032308A1 (published 2021).

Experiments:
ML1d1-Pfe = assay: SPR
ML3d1-Pfe = assay: SPR

B1: CD2 (receptor)
chain: KEITNALETWGALGQDINLDIPSFQMSDDIDDIKWEKTSDKKKIAQFRKEKETFKEKDTYKLFKNGTLKIKHLKTDDQDIYKVSIYDTKGKNVLEKIFDLKIQERVSKPKISWTCINTTLTCEVMNGTDPELNLYQDGKHLKLSQRVITHKWTTSLSAKFKCTAGNKVSKESSVEPVSCPEKGLD
modifications: biotinylated (site not stated)
With B1 the Kd (ML1d1-Pfe) was 82 nM and the Kd (ML3d1-Pfe) was 52 nM.
